Assay results taken from patent US20220406376A1 (MacroGenics, published 2022).

Assays:
[1] = biological target: T1, HER2/neu on the surface of target cells (N87, JIMT-1, MCF-7, MDA-MB231) (UniProt P04626 23-1255, limits assumed); assay: flow cytometry on N87 cells, anti-hFc APC MFI
T1 construct: whole, on cells

[2] = biological target: T1, HER2/neu on the surface of target cells …; assay: flow cytometry on MCF-7 cells, anti-hFc APC MFI
[3] = biological target: T1, HER2/neu on the surface of target cells …; assay: flow cytometry on JIMT-1 cells, anti-hFc APC MFI
[4] = biological target: T2, CD137 on the surface of cells (activated human T cells; engineered CHO cells) (human, UniProt Q07011 24-255); assay: flow cytometry on activated pan T cells (donor D46433, CD8 PE), anti-hFc APC MFI
T2 construct: whole, on cells; also called human CD137; cell surface expressed CD137
T2 sequence (Q07011 24-255, change not shown): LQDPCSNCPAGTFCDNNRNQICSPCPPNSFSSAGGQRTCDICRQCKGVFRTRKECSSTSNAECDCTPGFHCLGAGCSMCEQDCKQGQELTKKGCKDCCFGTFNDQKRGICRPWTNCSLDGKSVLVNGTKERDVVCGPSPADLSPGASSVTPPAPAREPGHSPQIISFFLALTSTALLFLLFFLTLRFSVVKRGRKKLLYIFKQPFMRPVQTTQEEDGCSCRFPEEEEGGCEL

B1: TRIDENT-A (bispecific antibody, human IgG1, kappa, L234A L235A)
chain 1: DIQMTQSPSSLSASVGDRVTITCRPSQDISNYLNWYQQKPDKTVKLLIYYTSRLRSGVPSRFSGSGSGTDFTFTISSLQPEDIATYFCQQGDTLPYTFGQGTKLEIKGGGSGGGGQVQLVQSGAEVKKPGASVKVSCKASGYTFTSYWINWVKQAPGQGLEWIGNIYPSDSYTNYNQKFKDKATITADKSTSTAYMELSSLRSEDTAVYYCTRDYGSSYSFDYWGQGTTVTVSSASTKGEVAACEKEVAALEKEVAALEKEVAALEKGGGDKTHTCPPCPAPEAAGGPSVFLFPPKPKDTLMISRTPEVTCVVVDVSHEDPEVKFNWYVDGVEVHNAKTKPREEQYNSTYRVVSVLTVLHQDWLNGKEYKCKVSNKALPAPIEKTISKAKGQPREPQVYTLPPSREEMTKNQVSLWCLVKGFYPSDIAVEWESNGQPENNYKTTPPVLDSDGSFFLYSKLTVDKSRWQQGNVFSCSVMHEALHNHYTQKSLSLSPGK
chain 2: DIQMTQSPSSLSASVGDRVTITCRPSQDISNYLNWYQQKPDKTVKLLIYYTSRLRSGVPSRFSGSGSGTDFTFTISSLQPEDIATYFCQQGDTLPYTFGQGTKLEIKGGGSGGGGQVQLVQSGAEVKKPGASVKVSCKASGYTFTSYWINWVKQAPGQGLEWIGNIYPSDSYTNYNQKFKDKATITADKSTSTAYMELSSLRSEDTAVYYCTRDYGSSYSFDYWGQGTTVTVSSASTKGKVAACKEKVAALKEKVAALKEKVAALKE
heavy: QVQLVQSGAEVKKPGASVKVSCKASGYTFTNYGMNWVRQAPGQGLEWMGWINTNIGEPTYTEEFKGRVTMTRDTSISTAYMELSRLRSDDTAVYYCARDDGYGNRVSYWGQGTLVTVSSASTKGPSVFPLAPSSKSTSGGTAALGCLVKDYFPEPVTVSWNSGALTSGVHTFPAVLQSSGLYSLSSVVTVPSSSLGTQTYICNVNHKPSNTKVDKRVEPKSCDKTHTCPPCPAPEAAGGPSVFLFPPKPKDTLMISRTPEVTCVVVDVSHEDPEVKFNWYVDGVEVHNAKTKPREEQYNSTYRVVSVLTVLHQDWLNGKEYKCKVSNKALPAPIEKTISKAKGQPREPQVYTLPPSREEMTKNQVSLSCAVKGFYPSDIAVEWESNGQPENNYKTTPPVLDSDGSFFLVSKLTVDKSRWQQGNVFSCSVMHEALHNRYTQKSLSLSPGK
light: DIQMTQSPSSLSASVGDRVTITCKASQDISNYLSWFQQKPGKAPKTLIYRANRLQSGVPSRFSGSGSGTDFTLTISSLQPEDFATYYCLQHDEFPWTFGQGTKLEIKRTVAAPSVFIFPPSDEQLKSGTASVVCLLNNFYPREAKVQWKVDNALQSGNSQESVTEQDSKDSTYSLSSTLTLSKADYEKHKVYACEVTHQGLSSPVTKSFNRGEC
- EC50 (read off the curve) [1]: ~1 nM
- EC50 (read off the curve) [2]: ~0.2 nM
- EC50 (read off the curve) [3]: ~0.9 nM
- EC50 (read off the curve) [4]: ~0.06 nM

B2: TRIDENT-A2 (bispecific antibody, human IgG1, kappa, L234A L235A)
chain 1: DIQMTQSPSSLSASVGDRVTITCRPSQDISNYLNWYQQKPDKTVKLLIYYTSRLRSGVPSRFSGSGSGTDFTFTISSLQPEDIATYFCQQGDTLPYTFGQGTKLEIKGGGSGGGGQVQLVQSGAEVKKPGASVKVSCKASGYTFTSYWINWVKQAPGQGLEWIGNIYPSDSYTNYNQKFKDKATITADKSTSTAYMELSSLRSEDTAVYYCTRDYGSAYSMSTWGQGTTVTVSSASTKGEVAACEKEVAALEKEVAALEKEVAALEKGGGDKTHTCPPCPAPEAAGGPSVFLFPPKPKDTLMISRTPEVTCVVVDVSHEDPEVKFNWYVDGVEVHNAKTKPREEQYNSTYRVVSVLTVLHQDWLNGKEYKCKVSNKALPAPIEKTISKAKGQPREPQVYTLPPSREEMTKNQVSLWCLVKGFYPSDIAVEWESNGQPENNYKTTPPVLDSDGSFFLYSKLTVDKSRWQQGNVFSCSVMHEALHNHYTQKSLSLSPGK
chain 2: DIQMTQSPSSLSASVGDRVTITCRPSQDISNYLNWYQQKPDKTVKLLIYYTSRLRSGVPSRFSGSGSGTDFTFTISSLQPEDIATYFCQQGDTLPYTFGQGTKLEIKGGGSGGGGQVQLVQSGAEVKKPGASVKVSCKASGYTFTSYWINWVKQAPGQGLEWIGNIYPSDSYTNYNQKFKDKATITADKSTSTAYMELSSLRSEDTAVYYCTRDYGSAYSMSTWGQGTTVTVSSASTKGKVAACKEKVAALKEKVAALKEKVAALKE
heavy: QVQLVQSGAEVKKPGASVKVSCKASGYTFTNYGMNWVRQAPGQGLEWMGWINTNIGEPTYTEEFKGRVTMTRDTSISTAYMELSRLRSDDTAVYYCARDDGYGNRVSYWGQGTLVTVSSASTKGPSVFPLAPSSKSTSGGTAALGCLVKDYFPEPVTVSWNSGALTSGVHTFPAVLQSSGLYSLSSVVTVPSSSLGTQTYICNVNHKPSNTKVDKRVEPKSCDKTHTCPPCPAPEAAGGPSVFLFPPKPKDTLMISRTPEVTCVVVDVSHEDPEVKFNWYVDGVEVHNAKTKPREEQYNSTYRVVSVLTVLHQDWLNGKEYKCKVSNKALPAPIEKTISKAKGQPREPQVYTLPPSREEMTKNQVSLSCAVKGFYPSDIAVEWESNGQPENNYKTTPPVLDSDGSFFLVSKLTVDKSRWQQGNVFSCSVMHEALHNRYTQKSLSLSPGK
light: DIQMTQSPSSLSASVGDRVTITCKASQDISNYLSWFQQKPGKAPKTLIYRANRLQSGVPSRFSGSGSGTDFTLTISSLQPEDFATYYCLQHDEFPWTFGQGTKLEIKRTVAAPSVFIFPPSDEQLKSGTASVVCLLNNFYPREAKVQWKVDNALQSGNSQESVTEQDSKDSTYSLSSTLTLSKADYEKHKVYACEVTHQGLSSPVTKSFNRGEC
- EC50 (read off the curve) [1]: ~1 nM
- EC50 (read off the curve) [2]: ~0.2 nM
- EC50 (read off the curve) [3]: ~0.7 nM
- EC50 (read off the curve) [4]: ~0.04 nM

B3: TRIDENT-A4 (bispecific antibody, human IgG1, kappa, L234A L235A)
chain 1: DIQMTQSPSSLSASVGDRVTITCRPSQDISNYLNWYQQKPDKTVKLLIYYTSRLRSGVPSRFSGSGSGTDFTFTISSLQPEDIATYFCQQGDTLPYTFGQGTKLEIKGGGSGGGGQVQLVQSGAEVKKPGASVKVSCKASGYTFTSYWINWVKQAPGQGLEWIGNIYPSDSYTNYNQKFKDKATITADKSTSTAYMELSSLRSEDTAVYYCTRDYGSSYSYNVWGQGTTVTVSSASTKGEVAACEKEVAALEKEVAALEKEVAALEKGGGDKTHTCPPCPAPEAAGGPSVFLFPPKPKDTLMISRTPEVTCVVVDVSHEDPEVKFNWYVDGVEVHNAKTKPREEQYNSTYRVVSVLTVLHQDWLNGKEYKCKVSNKALPAPIEKTISKAKGQPREPQVYTLPPSREEMTKNQVSLWCLVKGFYPSDIAVEWESNGQPENNYKTTPPVLDSDGSFFLYSKLTVDKSRWQQGNVFSCSVMHEALHNHYTQKSLSLSPGK
chain 2: DIQMTQSPSSLSASVGDRVTITCRPSQDISNYLNWYQQKPDKTVKLLIYYTSRLRSGVPSRFSGSGSGTDFTFTISSLQPEDIATYFCQQGDTLPYTFGQGTKLEIKGGGSGGGGQVQLVQSGAEVKKPGASVKVSCKASGYTFTSYWINWVKQAPGQGLEWIGNIYPSDSYTNYNQKFKDKATITADKSTSTAYMELSSLRSEDTAVYYCTRDYGSSYSYNVWGQGTTVTVSSASTKGKVAACKEKVAALKEKVAALKEKVAALKE
heavy: QVQLVQSGAEVKKPGASVKVSCKASGYTFTNYGMNWVRQAPGQGLEWMGWINTNIGEPTYTEEFKGRVTMTRDTSISTAYMELSRLRSDDTAVYYCARDDGYGNRVSYWGQGTLVTVSSASTKGPSVFPLAPSSKSTSGGTAALGCLVKDYFPEPVTVSWNSGALTSGVHTFPAVLQSSGLYSLSSVVTVPSSSLGTQTYICNVNHKPSNTKVDKRVEPKSCDKTHTCPPCPAPEAAGGPSVFLFPPKPKDTLMISRTPEVTCVVVDVSHEDPEVKFNWYVDGVEVHNAKTKPREEQYNSTYRVVSVLTVLHQDWLNGKEYKCKVSNKALPAPIEKTISKAKGQPREPQVYTLPPSREEMTKNQVSLSCAVKGFYPSDIAVEWESNGQPENNYKTTPPVLDSDGSFFLVSKLTVDKSRWQQGNVFSCSVMHEALHNRYTQKSLSLSPGK
light: DIQMTQSPSSLSASVGDRVTITCKASQDISNYLSWFQQKPGKAPKTLIYRANRLQSGVPSRFSGSGSGTDFTLTISSLQPEDFATYYCLQHDEFPWTFGQGTKLEIKRTVAAPSVFIFPPSDEQLKSGTASVVCLLNNFYPREAKVQWKVDNALQSGNSQESVTEQDSKDSTYSLSSTLTLSKADYEKHKVYACEVTHQGLSSPVTKSFNRGEC
- EC50 (read off the curve) [1]: ~1 nM
- EC50 (read off the curve) [2]: ~0.2 nM
- EC50 (read off the curve) [3]: ~0.7 nM
- EC50 (read off the curve) [4]: ~0.05 nM
